Test results taken from the nanobody polyreactivity screen of Harvey et al. (2022).

Assay: yeast display, Sf9 membrane polyspecificity reagent, FACS + sequencing; frameworks hold sequencing errors
Procedure, shortened: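 Nanobodies from a synthetic yeast display library (Saccharomyces cerevisiae BJ5465), induced 36–48 hours with galactose, were stained 1 hour at 4 °C with 10% biotinylated, detergent-solubilized Sf9 membrane reagent, enriched on streptavidin microbeads, then FACS-sorted. Anti-HA (expression) and streptavidin (reagent binding) fluorescence set low and high (top ~1%) gates. Polyreactivity labels come from the gate of origin. Genes were colony-PCR amplified, MiSeq 2 × 250 sequenced and filtered by CDR length.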

| Sequence | polyreactivity (PSR sort gate) |
| --- | --- |
| QVQLVESGGGLVQAGGSLRLSCAASGRTFRSNAMGWYRQAPGKERELVAAISKRGASTYYADSVKGRFTISRDNAKNTVYLQMNSLKPEVTAVYYCNTGAAKHAYDYWGQGTQVTVSS | high polyreactivity |
| QVQLVESGGGLVQAGGSLRLSCAASGRTFRSNAMGWYRQAPGKERELVAAISNSGASTYYADSVKGRFTISRDNAKNTFYLQMNSLKPEDTAVYYCAADYYRPYRYDYWGQGTQVTVSS | high polyreactivity |
| QVQLVESGGGLVQAGGSLRLSCAASGRTFRSNAMGWYRQAPGKERELVAAITRSGGNTYYADSVKGRFTISRDTAKNTVYLQMNSLKPEDTAVYYCADRYSNPWARVSGYDYWGQGTQVTVSS | high polyreactivity |
| QVQLVESGGGLVQAGGSLRLSCAASGRTFRSYAMGWYRQAPGKERELVATITRGSSTNYADSGKGRFTISRDNAKNTVYLQMNSLKPEDTAVYYCNADGKPPYISWLYDYWGQGTQVTVSS | low polyreactivity |
| QVQLVESGGGLVQAGGSLRLSCAASGRTFRTNAMGWYRQAAGKERELVAAIRASTGSTYYADSVKGRFTMSRDNAKNTVYLQMNSLKPEDTAVYYCAARLRRGLTATWYYYWGQGTQVTVSS | high polyreactivity |
| QVQLVESGGGLVQAGGSLRLSCAASGRTFRTNAMGWYRQAPGKERELVAAITSDGTYYADSVKGRFTISRDNAKNTVYLQMNSLKPEDTAVYYCNVDDRETRDDYWGQGTQVTVSS | low polyreactivity |
| QVQLVESGGGLVQAGGSLRLSCAASGRTFRTNAMGWYRQAPGKESELVADITYSGDSTYDADSVKGRFTISRDNAKNNVYLQMNSLKPEDTAVYYCNARLLSGPGYDYWGQGTQVTVSS | low polyreactivity |
| QVQLVESGGGLVQAGGSLRLSCAASGRTFRTNTMGWYRQAPGKERELVAAIRYIGGSTYYADSVKGRFTISRDNAKNTVYLQMNSLKPEDTAVYYCAAYRYGSRYGYEYWGQGTQVTVSS | high polyreactivity |
| QVQLVESGGGLVQAGGSLRLSCAASGRTFRTYAMGWYRQAPGKERELVAITTSGGSTYYADSVKGRFTISRDNAKNTVYLQMNSLKPEDTAVYYGAAQWRSYYDQYGYDYWGQGTQVTVSS | low polyreactivity |
| QVQLVESGGGLVQAGGSLRLSCAASGRTFRTYAMGWYRQAPGKERELVASISVGGGSTYYADSVKGRFTISRDNAKNTVYLQMNSLKPEDTAVYYCAVRSYSPRSRGMGYWGQGTQVTVSS | high polyreactivity |
| QVQLVESGGGLVQAGGSLRLSCAASGRTFRTYTMGWYRQAPGKEREFVAAIDRTGGSTYYADSVKGRFTISRDNAKNTVYLQMNSLKPEDTAVYYCAARFGSGFNYWGQGTQVTVSS | high polyreactivity |
| QVQLVESGGGLVQAGGSLRLSCAASGRTFRTYVMGWYRQAPGKERELVAAITWSGGRTYYADSVKGRFTISRDNAKNTVYLQMNSLKPEDTAVYYCATQPTYYLRSYGLDYWGQGTQVTVSS | high polyreactivity |
| QVQLVESGGGLVQAGGSLRLSCAASGRTFRVYAMGWYRQAPGKERELVAAISGSGGSTYYADSLKGRFTISRDNAKNTVYLQMNSLKPDDTAVYYCAARYFGPGWRDRDYNYWAQGTQVTVSS | high polyreactivity |
| QVQLVESGGGLVQAGGSLRLSCAASGRTFRVYAMGWYRQAPGKERELVATITSSGGSTYYADSVKGRLTISRDNAMNTVDLQMNSLKPEDTAGYYCNVSVYYKYVSSYYYWGQGTQVTVSS | low polyreactivity |
| QVQLVESGGGLVQAGGSLRLSCAASGRTFRVYAMGWYRQAPGKERELVATLTGRGGSTDYADSVKGRFTISRDNAKNTVYLQMNILKPEDTAVYYCAAVGVSRRADPAWAGDYWGQGTQVTVSS | high polyreactivity |
| QVQLVESGGGLVQAGGSLRLSCAASGRTFRWNAMGWYRPAPGKERELVAAISSGGSTYYADSVKGRFTISRDNAKNTVYLQMNSLKPEDTAVYYCNKYYVRAYDTQEYDYWGQGTQVTVSS | high polyreactivity |
| QVQLVESGGGLVQAGGSLRLSCAASGRTFRWNAMGWYRQAPGKERELVATIRSGDSTNYADSVKGRFTISRDNAKNTVYLQMNSLKPEDTAVYYCAAEGVSKVYWGYFGSYDYWGQGTQVTVSS | low polyreactivity |
| QVQLVESGGGLVQAGGSLRLSCAASGRTFRWNGMGWYRQAPGKERELVAVINRGGSTTYADSVKGRFTISRDNAKNTVYLQMNSLKPEDTAVYYCAKDHYYAGTWRYGYWGQGTQVTVSS | high polyreactivity |
| QVQLVESGGGLVQAGGSLRLSCAASGRTFRWYAMGWYRQAPGKERELVAAINPGGSTNYADSVKGRFTISRDNAKNSVYLQMNSLKPEDTAVYYCNAAGYDALTHNYYWGQGTQVTVSS | low polyreactivity |
| QVQLVESGGGLVQAGGSLRLSCAASGRTFRWYAMGWYRQAPGKERELVAAITSDGSTYYADSVKGRFTISRDNAKNTVYLQMNSLKPEDTAVYYCNAAGRYAFPFGYNYWGQGTQVTVSS | high polyreactivity |
| QVQLVESGGGLVQAGGSLRLSCAASGRTFRWYAMGWYRQAPGKERELVAAITSSSSTNYADSVKGRFTISRDNAKNTVYLQMNSLKPEDTAVYYCAKGWNWYDLGESGYWGQGTQVTVSS | low polyreactivity |
| QVQLVESGGGLVQAGGSLRLSCAASGRTFRWYAMGWYRQAPGKERELVADISSVGSTDYADSVKGRFTISRDNAKNTVYLQMNSLKPEDTAVYDCAADFSPRRYHNRSFGYWGHGTQVTVSS | low polyreactivity |

| Sequence | polyreactivity (PSR sort gate) |
| --- | --- |
| QVQLVESGGGLVQAGGSLRLSCAASGRTFRWYAMGWYRQAPGKETELVAAINPGGSTNYADSVKGRFTISRDNAKNTVYLQMNSLKPEDTAVYYCNAAGYDALTHNYYWGQCTQVTVSS | low polyreactivity |
| QVQLVESGGGLVQAGGSLRLSCAASGRTFRWYTMGWYRQAPGKERELVAAITSRGGSTYADSVKGRFTISRDNAKNTVYLQMNSMKPEDTAVYYCNAARTYQYDYWGQGTQVTVSS | high polyreactivity |
| QVQLVESGGGLVQAGGSLRLSCAASGRTFRYNAMGWYRQAPGKERDLVAAISYSGGRTNYADSVKGRFTISRDNAKNTVYLQMNSLKPEDTAVYDCATGYAVYLSRRDYWGQGTQVTVSS | high polyreactivity |
| QVQLVESGGGLVQAGGSLRLSCAASGRTFRYNAMGWYRQAPGKERELVAAISTRGGSTYYADSVKGRFTISRDNAKNTVYLQMNSLKPEDTAVYYCAVTPRIPGHFEDYYWGQGTQVTVSS | low polyreactivity |
| QVQLVESGGGLVQAGGSLRLSCAASGRTFRYNAMGWYRQAPGKERELVAGITYNGGSTSYADSVKGRFTISRDNAKNTVYLQMNSLKPEDTAVYYCNVVYNYYGRFGSWGQGTQVTVSS | high polyreactivity |
| QVQLVESGGGLVQAGGSLRLSCAASGRTFRYNDMGWYRQAPGKERELVADITFSGGNTYYADSVKGRFTISRVNAKNTVYLQMNSLKPEDTAVYYCAKRRYYTGGMDYWVQGTQVTVSS | low polyreactivity |
| QVQLVESGGGLVQAGGSLRLSCAASGRTFRYNTMGWYRPAPGKERELVAAISSGGGRTYYADSVKGRFTISRDNAKNTVYLQMNSLIPEDTAVYYCAADRYFRSRRSYEYWGQGTQVTVSS | low polyreactivity |
| QVQLVESGGGLVQAGGSLRLSCAASGRTFRYNTMGWYRQAPGKERELVAAITRSGGTTYYADSVKGRFTISRDNAKNTVYLQMNSLKPEDTSVYYCAAEGQAVRKSARDVFFEEFDYWGHGTQVTVSS | low polyreactivity |
| QVQLVESGGGLVQAGGSLRLSCAASGRTFRYYAMGWSRQAPGKERELVASITSGGRTYYADSVKGRFTISRDNAKNTVYLQMNSLKPEDTAVYYCAADTPVTASSPPSDYWGQGTQVTVSS | high polyreactivity |
| QVQLVESGGGLVQAGGSLRLSCAASGRTFRYYAMGWYRPAPGKERELVATITGSGGSTYYADSVKGRFTISRDNAKNTVYLQMNSLKPEDTAVYYCNARKVRYPYRWYDYWGQGTQVTVSS | high polyreactivity |
| QVQLVESGGGLVQAGGSLRLSCAASGRTFRYYAMGWYRQAPGKERELVAAISSRGNTYYADSVKGRFTISRDNAKNTVYLQMNSLKPEDTAVYYCAAYVYRVQYDFDYWGQGTQVTVSS | high polyreactivity |
| QVQLVESGGGLVQAGGSLRLSCAASGRTFRYYAMGWYRQAPGKERELVAAITGSGGSTYYADSVKGRFTISRDNAKNTVYLQMHSLKPEDTAVYYCNTYLSRWSGERDYWGQGTQVTVSS | high polyreactivity |
| QVQLVESGGGLVQAGGSLRLSCAASGRTFRYYAMGWYRQAPGKERELVAGISSSGRTYYADSVKGRFTISRDNAKNTVYLQMNSLKPEDTAVYYCNAVYWPVRPVDRHDYWGQGTQVTVSS | high polyreactivity |
| QVQLVESGGGLVQAGGSLRLSCAASGRTFRYYAMGWYRQAPGKERELVASISSTGGNTYYADSVKGRFTISRDNAKNTVYLQMNSLKPEDTAVYYCAAGAWTRGQYYYWGQGTQVTVSS | high polyreactivity |
| QVQLVESGGGLVQAGGSLRLSCAASGRTFRYYAMGWYRQAPGKERELVASITSGGRTYYADSVKGRFTISRDNAKNTVYLQMNSLKPEDTAVYYCAADRFGIGGKRGNDYWGQGTQVTVSS | high polyreactivity |
| QVQLVESGGGLVQAGGSLRLSCAASGRTFRYYAMGWYRQAPGKEREWDAAISRGDSTHYADSVKGRFTISRDNAKNSVYLQMNSLKPEDTEVYYCAAYRGRSVDRQPYYWGQGTQVTVSS | high polyreactivity |
| QVQLVESGGGLVQAGGSLRLSCAASGRTFRYYAMGWYRQAPGKESELVAAIRTRGASTYYADSVKGRFTISRDNAKNTVYLQMNSLKPEDTAVYYCAKRAHFSSARHVYYIYDYWGQGTQVTVSS | low polyreactivity |
| QVQLVESGGGLVQAGGSLRLSCAASGRTFRYYAMGWYRQAPGKVRELVAAISWNGANTYYADSVKGRFTISRDNAKNTVYLQMNSLKPEDTAVYYCAATYYRWKGYDYWGQGTQVTVSS | high polyreactivity |
| QVQLVESGGGLVQAGGSLRLSCAASGRTFRYYSMGWYRQAPGKERELVATITGSGGSTYYADSVKGRFTISRDNAKNTVYLQMNSLKPEDTAVYYCNARKVRYPYRWYDYWGQGTQVTVSS | high polyreactivity |
| QVQLVESGGGLVQAGGSLRLSCAASGRTFRYYVMGWYRQAPGKERELVAAINRRGDNTYYADSVKGRLTISRDNAKNTVYLQMNSLKPEDTAVYYCAARREPYQYNQYYSWGQGTQVTVSS | high polyreactivity |
| QVQLVESGGGLVQAGGSLRLSCAASGRTFRYYVMGWYRQAPGKERELVAAISRTGGNTYYADSVKGRFTISRDNAKNTVYLQMNSLKPEDTAVYYCNTVRRPSSWRYDYWGQGTQVTVSS | high polyreactivity |
